Data published in US20110311523A1.

Target: human platelet derived growth factor-α receptor (PDGFRα) (human) (UniProt P16234)
Test: cell-based or functional assay

human platelet derived growth factor-α receptor (PDGFRα) (human), sequence (P16234 24-1089): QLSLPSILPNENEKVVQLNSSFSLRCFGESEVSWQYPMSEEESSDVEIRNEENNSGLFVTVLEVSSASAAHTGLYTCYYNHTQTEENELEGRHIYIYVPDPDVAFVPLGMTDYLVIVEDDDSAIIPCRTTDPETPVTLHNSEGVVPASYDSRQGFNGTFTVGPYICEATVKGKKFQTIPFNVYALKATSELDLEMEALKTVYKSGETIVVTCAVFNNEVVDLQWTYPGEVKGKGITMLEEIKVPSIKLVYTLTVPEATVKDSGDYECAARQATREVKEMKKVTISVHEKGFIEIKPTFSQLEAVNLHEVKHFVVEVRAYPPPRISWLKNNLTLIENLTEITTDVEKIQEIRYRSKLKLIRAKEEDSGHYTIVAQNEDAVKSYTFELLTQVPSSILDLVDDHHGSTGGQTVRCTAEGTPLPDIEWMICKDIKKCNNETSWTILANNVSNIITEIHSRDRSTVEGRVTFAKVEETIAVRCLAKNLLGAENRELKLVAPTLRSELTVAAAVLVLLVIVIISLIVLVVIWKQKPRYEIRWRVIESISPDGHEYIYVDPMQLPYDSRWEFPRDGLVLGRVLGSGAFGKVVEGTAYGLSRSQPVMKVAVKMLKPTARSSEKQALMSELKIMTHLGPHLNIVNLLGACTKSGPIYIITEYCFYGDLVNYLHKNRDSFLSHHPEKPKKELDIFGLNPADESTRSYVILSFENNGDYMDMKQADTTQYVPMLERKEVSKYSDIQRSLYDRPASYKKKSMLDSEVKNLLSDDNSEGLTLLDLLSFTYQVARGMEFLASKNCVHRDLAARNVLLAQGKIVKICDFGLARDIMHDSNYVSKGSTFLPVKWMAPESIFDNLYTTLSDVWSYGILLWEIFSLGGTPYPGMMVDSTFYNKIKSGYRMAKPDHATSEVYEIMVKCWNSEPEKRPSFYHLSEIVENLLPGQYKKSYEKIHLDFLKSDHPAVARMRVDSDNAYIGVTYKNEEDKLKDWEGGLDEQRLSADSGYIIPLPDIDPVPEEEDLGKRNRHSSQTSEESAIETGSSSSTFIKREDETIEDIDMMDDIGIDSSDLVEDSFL

Substance	decrease in HCMV entry (pp65 positive cells) [%]
PDGF-AA (from UniProt P04085 87-211) (ligand)	30
IMC-3G3, a humanized PDGFRα blocking antibody (ImClone Inc.)	45
